# Earlier results as cited in paper PMC3390648 (The Journal of Biological Chemistry, 2012).
# Tested on: B subunit
# Settings: last 67 amino acids of recombinant human pol α removed; cited from earlier work
molecule,measurement,value
"truncated protein: recombinant form of human pol α with the last 67 amino acids removed (protein, UniProt P09884 1-1395, looked up, fragment) MAPVHGDDSLSDSGSFVSSRARREKKSKKGRQEALERLKKAKAGEKYKYEVEDFTGVYEEVDEEQYSKLVQARQDDDWIVDDDGIGYVEDGREIFDDDLEDDALDADEKGKDGKARNKDKRNVKKLAVTKPNNIKSMFIACAGKKTADKAVDLSKDGLLGDILQDLNTETPQITPPPVMILKKKRSIGASPNPFSVHTATAVPSGKIASPVSRKEPPLTPVPLKRAEFAGDDVQVESTEEEQESGAMEFEDGDFDEPMEVEEVDLEPMAAKAWDKESEPAEEVKQEADSGKGTVSYLGSFLPDVSCWDIDQEGDSSFSVQEVQVDSSHLPLVKGADEEQVFHFYWLDAYEDQYNQPGVVFLFGKVWIESAETHVSCCVMVKNIERTLYFLPREMKIDLNTGKETGTPISMKDVYEEFDEKIATKYKIMKFKSKPVEKNYAFEIPDVPEKSEYLEVKYSAEMPQLPQDLKGETFSHVFGTNTSSLELFLMNRKIKGPCWLEVKSPQLLNQPVSWCKVEAMALKPDLVNVIKDVSPPPLVVMAFSMKTMQNAKNHQNEIIAMAALVHHSFALDKAAPKPPFQSHFCVVSKPKDCIFPYAFKEVIEKKNVKVEVAATERTLLGFFLAKVHKIDPDIIVGHNIYGFELEVLLQRINVCKAPHWSKIGRLKRSNMPKLGGRSGFGERNATCGRMICDVEISAKELIRCKSYHLSELVQQILKTERVVIPMENIQNMYSESSQLLYLLEHTWKDAKFILQIMCELNVLPLALQITNIAGNIMSRTLMGGRSERNEFLLLHAFYENNYIVPDKQIFRKPQQKLGDEDEEIDGDTNKYKKGRKKAAYAGGLVLDPKVGFYDKFILLLDFNSLYPSIIQEFNICFTTVQRVASEAQKVTEDGEQEQIPELPDPSLEMGILPREIRKLVERRKQVKQLMKQQDLNPDLILQYDIRQKALKLTANSMYGCLGFSYSRFYAKPLAALVTYKGREILMHTKEMVQKMNLEVIYGDTDSIMINTNSTNLEEVFKLGNKVKSEVNKLYKLLEIDIDGVFKSLLLLKKKKYAALVVEPTSDGNYVTKQELKGLDIVRRDWCDLAKDTGNFVIGQILSDQSRDTIVENIQKRLIEIGENVLNGSVPVSQFEINKALTKDPQDYPDKKSLPHVHVALWINSQGGRKVKAGDTVSYVICQDGSNLTASQRAYAPEQLQKQDNLTIDTQYYLAQQIHPVVARICEPIDGIDAVLIATWLGLDPTQFRVHHYHKDEENDALLGGPAQLTDEEKYRDCERFKCPCPTCGTENIYDNVFDGSGTDMEPSLYRCSNIDCKASPLTFTVQLSNKLIMDIRRFIKKYYDGWLICEEPTCRNRTRHLPLQFSRTGPLCPACMKATLQPEYSDKSLYTQLCFY",interaction with the B subunit,abolished interaction with the B subunit
